Measured values from patent publication US20230265151A1, “GIP/GLP1 CO-AGONIST COMPOUNDS” (priority 2020, published 2023).
Where a chain is given by its changes, count along the chain named.

T1: human GIP receptor (human, UniProt P48546 22-466)
T1 construct: whole, on cells; also called hGIPR; human glucose-dependent insulinotropic polypeptide receptor
T1 sequence (looked up): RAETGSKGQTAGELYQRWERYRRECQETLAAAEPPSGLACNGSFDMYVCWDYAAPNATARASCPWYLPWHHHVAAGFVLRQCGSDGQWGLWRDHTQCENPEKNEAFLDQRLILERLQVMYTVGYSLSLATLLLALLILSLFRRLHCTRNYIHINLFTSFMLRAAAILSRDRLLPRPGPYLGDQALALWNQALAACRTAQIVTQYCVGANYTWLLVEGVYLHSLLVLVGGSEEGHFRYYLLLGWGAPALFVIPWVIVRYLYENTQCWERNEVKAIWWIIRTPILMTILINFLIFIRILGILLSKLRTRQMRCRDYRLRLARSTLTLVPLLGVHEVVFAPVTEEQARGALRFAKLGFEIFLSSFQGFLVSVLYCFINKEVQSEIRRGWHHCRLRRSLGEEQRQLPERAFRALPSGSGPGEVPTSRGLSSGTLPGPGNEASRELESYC

B1: Y-Aib-EGT-αMeF(2F)-TSD-4Pal-SI-αMeL-LD-Orn-K((2-[2-(2-Amino-ethoxy)-ethoxy]-acetyl)2-(γ-Glu)-CO-(CH2)14-CH3)AQ-Aib-EFI-(D-Glu)-αMeY-LIEGGPSSGAPPPSK((2-[2-(2-Ami … (peptide)
peptide: YXEGTXTSDXSIXLDXKAQXEFIXXLIEGGPSSGAPPPSK
modifications: Aib2, αMeF(2F)6, 4Pal10, αMeL13, Orn16, K17(Z1), Aib20, D-Glu24, αMeY25, K40(Z1), C-term NH2; Z1=AEEA2-(γ-Glu)-CO-(CH2)14-CH3
B2: Y-Aib-EGT-αMeF(2F)-TSD-4Pal-SI-αMeL-LD-Orn-K((2-[2-(2-Amino-ethoxy)-ethoxy]-acetyl)2-(10-(4-carboxyphenoxy)decanoyl))AQ-Aib-EFI-(D-Glu)-αMeY-LIEGGK((2-[2-(2-Ami … (peptide)
peptide: YXEGTXTSDXSIXLDXKAQXEFIXXLIEGGKSSGAPPPS
modifications: Aib2, αMeF(2F)6, 4Pal10, αMeL13, Orn16, K17(Z1), Aib20, D-Glu24, αMeY25, K31(Z1), C-term NH2; Z1=AEEA2-(10-(4-carboxyphenoxy)decanoyl)
B3: Y-Aib-EGT-αMeF(2F)-TSD-4Pal-SI-αMeL-LD-Orn-K((2-[2-(2-Amino-ethoxy)-ethoxy]-acetyl)-(γ-Glu)-(10-(4-carboxyphenoxy)decanoyl))AQ-Aib-EFI-(D-Glu)-αMeY-LIEGGK((2-[2 … (peptide)
peptide: B2 peptide
modifications: Aib2, αMeF(2F)6, 4Pal10, αMeL13, Orn16, K17(Z1), Aib20, D-Glu24, αMeY25, K31(Z1), C-term NH2; Z1=AEEA-(γ-Glu)-(10-(4-carboxyphenoxy)decanoyl)
B4: Y-Aib-EGT-αMeF(2F)-TSD-4Pal-SI-αMeL-LD-Orn-K((2-[2-(2-Amino-ethoxy)-ethoxy]-acetyl)-(γ-Glu)-CO-(CH2)12-CO2H)AQ-Aib-EFI-(D-Glu)-αMeY-LIEGGK((2-[2-(2-Amino-ethoxy … (peptide)
peptide: B2 peptide
modifications: Aib2, αMeF(2F)6, 4Pal10, αMeL13, Orn16, K17(Z1), Aib20, D-Glu24, αMeY25, K31(Z1), C-term NH2; Z1=AEEA-(γ-Glu)-CO-(CH2)12-CO2H
B5: Y-Aib-EGT-αMeF(2F)-TSD-4Pal-SI-αMeL-LD-Orn-K((2-[2-(2-Amino-ethoxy)-ethoxy]-acetyl)-(γ-Glu)-CO-(CH2)14-CH3)AQ-Aib-EFI-(D-Glu)-αMeY-LIEGGK((2-[2-(2-Amino-ethoxy) … (peptide)
peptide: B2 peptide
modifications: Aib2, αMeF(2F)6, 4Pal10, αMeL13, Orn16, K17(Z1), Aib20, D-Glu24, αMeY25, K31(Z1), C-term NH2; Z1=AEEA-(γ-Glu)-CO-(CH2)14-CH3
B6: Y-Aib-EGT-αMeF(2F)-TSD-4Pal-SI-αMeL-LD-Orn-K((2-[2-(2-Amino-ethoxy)-ethoxy]-acetyl)-(γ-Glu)-CO-(CH2)10-CH3)AQ-Aib-EFI-(D-Glu)-αMeY-LIEGGK((2-[2-(2-Amino-ethoxy) … (peptide)
peptide: B2 peptide
modifications: Aib2, αMeF(2F)6, 4Pal10, αMeL13, Orn16, K17(Z1), Aib20, D-Glu24, αMeY25, K31(Z1), C-term NH2; Z1=AEEA-(γ-Glu)-CO-(CH2)10-CH3
B7: Y-Aib-EGT-αMeF(2F)-TSDK((2-[2-(2-Amino-ethoxy)-ethoxy]-acetyl)2-(γ-Glu)-CO-(CH2)14-CH3)SI-αMeL-LD-Orn-K((2-[2-(2-Amino-ethoxy)-ethoxy]-acetyl)2-(γ-Glu)-CO-(CH2) … (peptide)
peptide: B2 peptide with X10K, K31P
modifications: Aib2, αMeF(2F)6, K10(Z1), αMeL13, Orn16, K17(Z1), Aib20, D-Glu24, αMeY25, C-term NH2; Z1=AEEA2-(γ-Glu)-CO-(CH2)14-CH3
B8: Y-Aib-EGT-αMeF(2F)-TSD-4Pal-SI-αMeL-LD-Orn-K((2-[2-(2-Amino-ethoxy)-ethoxy]-acetyl)2-(γ-Glu)-CO-(CH2)14-CH3)AQ-Aib-EFIK((2-[2-(2-Amino-ethoxy)-ethoxy]-acetyl)2- … (peptide)
peptide: B2 peptide with X24K, K31P
modifications: Aib2, αMeF(2F)6, 4Pal10, αMeL13, Orn16, K17(Z1), Aib20, K24(Z1), αMeY25, C-term NH2; Z1=AEEA2-(γ-Glu)-CO-(CH2)14-CH3
B9: Y-Aib-EGT-αMeF(2F)-TSD-4Pal-Aib-I-αMeL-LD-Orn-QAQ-Aib-Orn-FIK(PEG4-(γ-Glu)-(10-(4-carboxyphenoxy)decanoyl))-αMeY-LIK(PEG4-(γ-Glu)-(10-(4-carboxyphenoxy)decanoyl … (peptide)
peptide: YXEGTXTSDXXIXLDXQAQXXFIKXLIKGGPSSGAPPPS
modifications: Aib2, αMeF(2F)6, 4Pal10, Aib11, αMeL13, Orn16, Aib20, Orn21, K24(Z1), αMeY25, K28(Z1), C-term NH2; Z1=PEG4-(γ-Glu)-(10-(4-carboxyphenoxy)decanoyl)
B10: Y-Aib-EGT-αMeF(2F)-TSD-4Pal-Aib-I-αMeL-LD-Orn-QAQ-Aib-4Pal-FIK((2-[2-(2-Amino-ethoxy)-ethoxy]-acetyl)2-(γ-Glu)-(10-(4-carboxyphenoxy)decanoyl))-αMeY-LIK((2-[2-( … (peptide)
peptide: B9 peptide
modifications: Aib2, αMeF(2F)6, 4Pal10, Aib11, αMeL13, Orn16, Aib20, 4Pal21, K24(Z1), αMeY25, K28(Z1), C-term NH2; Z1=AEEA2-(γ-Glu)-(10-(4-carboxyphenoxy)decanoyl)
B11: Y-Aib-EGT-αMeF(2F)-TSD-4Pal-Aib-I-αMeL-LD-Orn-QAQ-Aib-Orn-FIK((2-[2-(2-Amino-ethoxy)-ethoxy]-acetyl)2-(γ-Glu)2--(10-(4-carboxyphenoxy)decanoyl))-αMeY-LIK((2-[2- … (peptide)
peptide: B9 peptide
modifications: Aib2, αMeF(2F)6, 4Pal10, Aib11, αMeL13, Orn16, Aib20, Orn21, K24(Z1), αMeY25, K28(Z1), C-term NH2; Z1=AEEA2-(γ-Glu)2-(10-(4-carboxyphenoxy)decanoyl)
B12: Y-Aib-EGT-αMeF(2F)-TSD-4Pal-Aib-I-αMeL-LD-Orn-QAQ-Aib-Orn-FIK((2-[2-(2-Amino-ethoxy)-ethoxy]-acetyl)2-(γ-Glu)2-CO-(CH2)12-CO2H)-αMeY-LIK((2-[2-(2-Amino-ethoxy)- … (peptide)
peptide: B9 peptide
modifications: Aib2, αMeF(2F)6, 4Pal10, Aib11, αMeL13, Orn16, Aib20, Orn21, K24(Z1), αMeY25, K28(Z1), C-term NH2; Z1=AEEA2-(γ-Glu)2-CO-(CH2)12-CO2H
B13: Y-Aib-EGT-αMeF(2F)-TSD-4Pal-Aib-I-αMeL-LD-Orn-K(((2-[2-(2-Amino-ethoxy)-ethoxy]-acetyl)-Aoc-CO-(CH2)12-CO2H)AQ-Aib-EFI-(D-Glu)-αMeY-LIK(((2-[2-(2-Amino-ethoxy)- … (peptide)
peptide: B2 peptide with S11X, E28K, K31P
modifications: Aib2, αMeF(2F)6, 4Pal10, Aib11, αMeL13, Orn16, K17(Z1), Aib20, D-Glu24, αMeY25, K28(Z1), C-term NH2; Z1=AEEA-Aoc-CO-(CH2)12-CO2H
B14: Y-Aib-EGT-αMeF(2F)-TSD-4Pal-Aib-I-αMeL-LD-Orn-QAQ-Aib-Orn-FIK((2-[2-(2-Amino-ethoxy)-ethoxy]-acetyl)-(γ-Glu)-(2-[2-(2-Amino-ethoxy)-ethoxy]-acetyl)-(γ-Glu)-CO-( … (peptide)
peptide: B9 peptide
modifications: Aib2, αMeF(2F)6, 4Pal10, Aib11, αMeL13, Orn16, Aib20, Orn21, K24(Z1), αMeY25, K28(Z1), C-term NH2; Z1=AEEA-(γ-Glu)-AEEA-(γ-Glu)-CO-(CH2)12-CO2H
B15: Y-Aib-EGT-αMeF(2F)-TSD-4Pal-Aib-I-αMeL-LD-Orn-QAQ-Aib-Orn-FIK((2-[2-(2-Amino-ethoxy)-ethoxy]-acetyl)3-(γ-Glu)--(10-(4-carboxyphenoxy)decanoyl))-αMeY-LIK((2-[2-( … (peptide)
peptide: B9 peptide
modifications: Aib2, αMeF(2F)6, 4Pal10, Aib11, αMeL13, Orn16, Aib20, Orn21, K24(Z1), αMeY25, K28(Z1), C-term NH2; Z1=AEEA3-(γ-Glu)-(10-(4-carboxyphenoxy)decanoyl)
B16: Y-Aib-EGT-αMeF(2F)-TSD-4Pal-Aib-I-αMeL-LD-Orn-QAQ-Aib-Orn-FIK((γ-Glu)-(2-[2-(2-Amino-ethoxy)-ethoxy]-acetyl)2-(γ-Glu)-(10-(4-carboxyphenoxy)decanoyl))-αMeY-LIK( … (peptide)
peptide: B9 peptide
modifications: Aib2, αMeF(2F)6, 4Pal10, Aib11, αMeL13, Orn16, Aib20, Orn21, K24(Z1), αMeY25, K28(Z1), C-term NH2; Z1=(γ-Glu)-AEEA2-(γ-Glu)-(10-(4-carboxyphenoxy)decanoyl)
B17: Y-Aib-EGT-αMeF(2F)-TSD-4Pal-Aib-I-αMeL-LD-Orn-QAQ-Aib-Orn-FIK(PEG6-(γ-Glu)-CO-(CH2)12-CO2H)-αMeY-LIK(PEG6-(γ-Glu)-CO-(CH2)12-CO2H)GGPSSGAPPPS-NH2 (peptide)
peptide: B9 peptide
modifications: Aib2, αMeF(2F)6, 4Pal10, Aib11, αMeL13, Orn16, Aib20, Orn21, K24(Z1), αMeY25, K28(Z1), C-term NH2; Z1=PEG6-(γ-Glu)-CO-(CH2)12-CO2H
B18: Y-Aib-EGT-αMeF(2F)-TSD-hY-SI-αMeL-LD-Orn-QAQ-Aib-Orn-FIK((2-[2-(2-Amino-ethoxy)-ethoxy]-acetyl)2-(γ-Glu)-CO-(CH2)12-CO2H)-αMeY-LIK((2-[2-(2-Amino-ethoxy)-ethoxy … (peptide)
peptide: B9 peptide with X11S
modifications: Aib2, αMeF(2F)6, hY10 (so in the source), αMeL13, Orn16, Aib20, Orn21, K24(Z1), αMeY25, K28(Z1), C-term NH2; Z1=AEEA2-(γ-Glu)-CO-(CH2)12-CO2H
B19: Y-Aib-EGT-αMeF(2F)-TSD-4Pal-Aib-I-αMeL-LD-Orn-QAQ-Aib-Orn-FIK(PEG5-(γ-Glu)-CO-(CH2)12-CO2H)-αMeY-LIK(PEG5-(γ-Glu)-CO-(CH2)12-CO2H)GGPSSGAPPPS-NH2 (peptide)
peptide: B9 peptide
modifications: Aib2, αMeF(2F)6, 4Pal10, Aib11, αMeL13, Orn16, Aib20, Orn21, K24(Z1), αMeY25, K28(Z1), C-term NH2; Z1=PEG5-(γ-Glu)-CO-(CH2)12-CO2H

Target: T2, human glucagon receptor (human, UniProt P47871 26-477)
T2 construct: whole, on cells; also called hGCGR; hGcgR
T2 sequence (P47871 26-477): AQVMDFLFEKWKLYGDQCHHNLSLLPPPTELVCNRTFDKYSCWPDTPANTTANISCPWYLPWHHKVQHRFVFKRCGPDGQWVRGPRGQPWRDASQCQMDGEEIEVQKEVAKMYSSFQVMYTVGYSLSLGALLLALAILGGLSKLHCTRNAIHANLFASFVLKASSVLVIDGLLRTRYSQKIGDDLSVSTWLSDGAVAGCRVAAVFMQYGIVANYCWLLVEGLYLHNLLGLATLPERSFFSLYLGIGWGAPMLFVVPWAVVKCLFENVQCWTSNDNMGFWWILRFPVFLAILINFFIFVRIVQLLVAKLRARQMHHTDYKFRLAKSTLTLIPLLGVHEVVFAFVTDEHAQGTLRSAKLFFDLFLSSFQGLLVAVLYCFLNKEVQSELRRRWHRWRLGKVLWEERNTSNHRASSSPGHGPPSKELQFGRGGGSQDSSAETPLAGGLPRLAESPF
Assay: SPA competition vs [125I]-Gcg, hGcgR membranes

Binder	Ki [pM]
B1	283
B2	424000
B3	213000
B4	660000
B5	987
B6	17600
B7	923
B8	596
B9	101000
B10	70100
B11	139000
B12	382000
B13	304000
B14	305000
B15	268000
B16	151000
B17	342000
B18	94400
B19	208000

Target: T1, human GIP receptor
Assay: SPA competition vs [125I]-GIP, hGIPR membranes

Binder	Ki [pM]
B1	29.3
B2	48.9
B3	57.5
B4	50.8
B5	57.5
B6	36
B7	50.5
B8	21.7
B9	10
B10	34.5
B11	29.4
B12	42.7
B13	46.4
B14	29.6
B15	27.9
B16	23.6
B17	19.9
B18	30.1
B19	48.6

Target: T3, human GLP-1 receptor (human, UniProt P43220 24-463)
T3 construct: whole, on cells; also called hGLP-1R; human glucagon-like peptide-1 receptor
Assay: SPA competition vs [125I]-GLP-1, hGLP-1R membranes
Method in brief: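 Kᵢ values are geometric means (SEM) over replicates run on separate days, derived from IC₅₀ of four-parameter curve fits. Buffer: HEPES 25 mM pH 7.4 with CaCl₂ 2.5 mM, MgCl₂ 1 mM, bacitracin 0.1%, TWEEN-20 0.003%, EDTA-free protease inhibitors.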

Binder	Ki [pM]
B1	483
B2	681
B3	638
B4	1060
B5	691
B6	286
B7	412
B8	301
B9	140
B10	250
B11	189
B12	343
B13	1290
B14	268
B15	143
B16	263
B17	200
B18	182
B19	381
